In experiment [1] the target is T1, PKR ΔPK-Myc-Flag (aa 1-270) (UniProt P19525 1-270).
T1 construct: PKR (EIF2AK2) aa 1-270, kinase domain deleted; made from pPKR-FL; also called N-terminal RBM domain of PKR; source: HEK293, transfected, in lysate
Briefly: co-IP; HEK293 extract with Myc-Flag-tagged PKR FL, ΔPK or ΔRBM mixed with extract with untagged ORF57, RNase A/T1-digested; IP with anti-Flag for PKR; blot anti-ORF57. The settings on record: partners not purified.

The target of experiment [2] is T2, phosphorylated full-length PKR-Myc-Flag from arsenite-treated cells (UniProt P19525 1-551, phosphorylated; phospho-Thr 451 detected with anti-phosphorylated PKR (Thr 451)).
T2 construct: protein kinase R (PKR, EIF2AK2), full length, from pPKR-FL, phosphorylated in arsenite-treated cells; Other phosphorylated sites are not determined in this experiment; also called p-PKR; phosphorylated FL PKR; source: HEK293, transfected, treated with arsenite for 30 min, in lysate
T2 sequence (P19525 whole entry): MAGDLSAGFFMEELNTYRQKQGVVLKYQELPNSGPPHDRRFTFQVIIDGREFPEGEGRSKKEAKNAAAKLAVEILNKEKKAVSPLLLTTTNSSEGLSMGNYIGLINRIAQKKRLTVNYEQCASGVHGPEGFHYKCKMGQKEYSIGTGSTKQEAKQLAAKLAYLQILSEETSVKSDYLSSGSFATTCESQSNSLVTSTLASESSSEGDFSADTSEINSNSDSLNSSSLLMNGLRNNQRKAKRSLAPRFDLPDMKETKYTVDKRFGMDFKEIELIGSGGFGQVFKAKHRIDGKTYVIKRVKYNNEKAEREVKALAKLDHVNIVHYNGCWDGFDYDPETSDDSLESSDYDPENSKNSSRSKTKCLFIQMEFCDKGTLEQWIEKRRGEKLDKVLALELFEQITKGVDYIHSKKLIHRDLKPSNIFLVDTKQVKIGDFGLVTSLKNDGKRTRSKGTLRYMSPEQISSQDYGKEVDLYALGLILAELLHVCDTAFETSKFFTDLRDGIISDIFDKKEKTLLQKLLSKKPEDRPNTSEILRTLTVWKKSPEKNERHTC
As to the kind of experiment: co-IP; extract of HEK293 cells with PKR-Myc-Flag, untreated or treated with arsenite for 30 min, mixed with HEK293 extract with ORF57-Flag, RNase A/T1-digested; pulled down with anti-Myc beads; blots anti-Flag, anti-pPKR (Thr 451), anti-ORF57. As to conditions: partners not purified.

T1 sequence (P19525 1-270, stated change not applied): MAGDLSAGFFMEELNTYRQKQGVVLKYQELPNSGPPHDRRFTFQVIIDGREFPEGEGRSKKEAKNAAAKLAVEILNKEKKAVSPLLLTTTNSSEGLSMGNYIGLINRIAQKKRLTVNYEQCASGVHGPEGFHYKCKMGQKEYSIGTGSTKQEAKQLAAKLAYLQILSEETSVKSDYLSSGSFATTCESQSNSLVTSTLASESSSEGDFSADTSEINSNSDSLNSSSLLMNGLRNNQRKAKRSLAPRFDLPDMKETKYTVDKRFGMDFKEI

B1: KSHV ORF57, untagged (pcDNA-ORF57) (natural protein)
chain: MVQAMIDMDIMKGILEDSVSSSEFDESRDDETDAPTLEDEQLSEPAEPPADERIRGTQSAQGIPPPLGRIPKKSQGRSQLRSEIQFCSPLSRPRSPSPVNRYGKKIKFGTAGQNTRPPPEKRPRRRPRDRLQYGRTTRGGQCRAAPKRATRRPQVNCQRQDDDVRQGVSDAVKKLRLPASMIIDGESPRFDDSIIPRHHGACFNVFIPAPPSHVPEVFTDRDITALIRAGGKDDELINKKISAKKIDHLHRQMLSFVTSRHNQAYWVSCRRETAAAGGLQTLGAFVEEQMTWAQTVVRHGGWFDEKDIDIILDTAIFVCNAFVTRFRLLHLSCVFDKQSELALIKQVAYLVAMGNRLVEACNLLGEVKLNFRGGLLLAFVLTIPGMQSRRSISARGQELFRTLLEYYRPGDVMGLLNVIVMEHHSLCRNSECAAATRAAMGSAKFNKGLFFYPLS
notes: KSHV ORF57, untagged, expressed from pcDNA-ORF57; also called untagged ORF57; source: HEK293, transfected, in lysate
B1: the “fold binding relative to FL PKR” value in experiment [1] is approximately 6.5 fold.

B2: KSHV ORF57-Flag (wild type, pVM7) (natural protein)
chain: MVQAMIDMDIMKGILEDSVSSSEFDESRDDETDAPTLEDEQLSEPAEPPADERIRGTQSAQGIPPPLGRIPKKSQGRSQLRSEIQFCSPLSRPRSPSPVNRYGKKIKFGTAGQNTRPPPEKRPRRRPRDRLQYGRTTRGGQCRAAPKRATRRPQVNCQRQDDDVRQGVSDAVKKLRLPASMIIDGESPRFDDSIIPRHHGACFNVFIPAPPSHVPEVFTDRDITALIRAGGKDDELINKKISAKKIDHLHRQMLSFVTSRHNQAYWVSCRRETAAAGGLQTLGAFVEEQMTWAQTVVRHGGWFDEKDIDIILDTAIFVCNAFVTRFRLLHLSCVFDKQSELALIKQVAYLVAMGNRLVEACNLLGEVKLNFRGGLLLAFVLTIPGMQSRRSISARGQELFRTLLEYYRPGDVMGLLNVIVMEHHSLCRNSECAAATRAAMGSAKFNKGLFFYPLS
notes: KSHV ORF57 (mRNA transcript accumulation protein, MTA), wild type, expressed from pVM7; also called ORF57 wt; ORF57-wt-Flag; source: HEK293 or HeLa, transfected, in lysate
As to B2, in experiment [2], the “fold binding relative to PKR from untreated cells” value is approximately 3 times.

For the origin of these results see paper PMC5679657, “KSHV inhibits stress granule formation by viral ORF57 blocking PKR activation” (PLoS Pathogens, 2017).
